Results as given in patent US20150064273A1, “Mesenchymal Stem Cells Conditioned Medium and Methods of Generating and Using the Same” (Gamida-Cell Ltd., priority 2012, published 2015).

Key:
[1] = system: MSCs; settings: Tamama et al. 2010; cited from earlier work
[2] = system: mesenchymal stem cells; assay: Mesenchymal stem cell culture with growth factors with or without nicotinamide, cell counts; assay type: cell-based; settings: growth factor 10 or 50 ng/ml with 5 mM NAM; three or four passages
Description: Isolation: Bone marrow derived and adipose tissue derived mesenchymal cells were isolated based on their plastic adherence potential in expansion medium containing: High glucose DMEM and 10% Fetal Bovine Serum (FBS, Hyclone, Logan, Utah, USA) supplemented with 0.05 mg/ml Gentamicin (Sigma) and 2 mM L-glutamine (Biological Industries, Israel). Cells were allowed to adhere for 3-4 days and non-adherent cells were washed out with medium changes. The medium was further exchanged with fresh medium every 3-4 days.
Maintenance and expansion: Once adherent cells reached approximately 80-90% confluency, they were detached with 0.25% trypsin-EDTA (Sigma), washed twice in DMEM and 10% Fetal Bovine Serum, with centrifugation, 400 g, 5 minutes, and re-plated at a 1:2 to 1:1000 dilution under the same culture conditions.
Measurement of number of cells in culture: Cell number was measured using Cedex Automated Cell Counter (Innovatis). The cells were diluted 1:2 in Trypan Blue (Sigma) and cell number was measured automatically under microscope.
Treatment of mesenchymal cultures with nicotinamide: Mesenchymal cultures were initiated as described above, and supplemented with nicotinamide 1-15 mM alone, or in combination with growth factors or growth factors alone, incubated at 37° C. in a humidified atmosphere of 5% CO2 in air. At each passage and at each medium exchange, the cultures were supplemented with mesenchymal medium, nicotinamide and growth factors.
Mesenchymal stem cells were selected and cultured in the presence of particular growth factors (basic fibroblast growth factor—bFGF, heparin binding epidermal growth factor—HB-EGF, fibroblast growth factor 4—FGF-4 and platelet derived growth factor, homodimer, subunit B, PDGF-BB) in the presence and absence of nicotinamide for three or four passages and the number and size of the cells was calculated.
Two concentrations (10 and 50 ng/ml) of each one of the following factors were examined.
In addition, the influence of the combination: 5 mM NAM+50 ng/ml FGF4+50 ng/ml PDGF-BB was examined in comparison to an individual supplement.

[3] = system: mesenchymal stem cells; assay: Percent of MSC (CD105+CD45−) analyzed by FACS; assay type: cell-based; settings: FGF4 or PDGF-BB 50 ng/ml, NAM 5 mM
Description: Four different batches of MSC cultures were treated with FGF4 (50 ng/ml), NAM (5 mM) or a combination of FGF4+NAM. Percent of MSC (CD105+CD45−) was analyzed by FACS. FIGS. 7A-D are graphs illustrating that MSC cultures treated with PDGF-BB or a combination of PDGF-BB+NAM comprise a higher fraction of cells other than MSCs that contaminates the cultures as compared to MSC cultured in the absence of PDGF-BB. Four different batches of MSC cultures were treated with PDGF-BB (50 ng/ml), NAM (5 mM) or a combination of PDGF-BB+NAM. Percent of MSC (CD105+CD45−) was analyzed by FACS. Surface antigen analysis: At different time points the cells were detached with 0.25% trypsin-EDTA. […] The cells were then washed in the above buffer and analyzed using a FACScalibur® flow cytometer (Becton Dickinson). […] Emission of 10000 cells was measured using logarithmic amplification, and analyzed using the CellQuest software (Becton Dickinson). Cells stained with FITC- and PE-conjugated isotype control antibodies were used to determine background fluorescence.

[4] = system: MSC; settings: Stewart et al. 2010; cited from earlier work

Row | Molecule | effect on the ability of nicotinamide to increase proliferation of mesenchymal stem cells [2] | also measured
1 | EGF: Epidermal growth factor | – | increase in number of colony-forming units [1]: 25%
2 | basic FGF: basic fibroblast growth factor (bFGF, FGF2) | negative effect | –
3 | HB-EGF: heparin-binding EGF-like growth factor (protein, UniProt Q99075 63-148, looked up) Heparin-binding EGF-like …: DLQEADLDLLRVTLSSKPQALATPNKEEHGKRKKKGKGLGKKRDPCLRKYKDFCIHGECKYVKELRAPSCICHPGYHGERCHGLSL | negative effect | –
4 | PDGF-BB: platelet derived growth factor, homodimer, subunit B (protein, UniProt P01127 82-190, looked up) Platelet-derived growth …: SLGSLTIAEPAMIAECKTRTEVFEISRRLIDRTNANFLVWPPCVEVQRCSGCCNNRNVQCRPTQVQLRPVQVRKIEIVRKKPIFKKATVTLEDHLACKCETVAAARPVT | inconsistent effect | Percent of MSC (CD105+CD45−) in culture [3]: contaminated with a higher fraction of cells other than MSCs
5 | BMP-3: member of the transforming growth factor beta family, known to enhance bone differentiation (protein, UniProt P12645 363-472, looked up) Bone morphogenetic protein 3: QWIEPRNCARRYLKVDFADIGWSEWIISPKSFDAYYCSGACQFPMPKSLKPSNHATIQSIVRAVGVVPGIPEPCCVPEKMSSLSILFFDENKNVVLKVYPNMTVESCACR | – | increase in MSC proliferation [4]: threefold
